The results in this text go back to the supplement of paper PMC7877785.

± gives the uncertainty stated by the source.

This data set is described as follows: self-splicing fitness, log relative to wild type (ln ratio); higher = more splicing; Tetrahymena group I intron in knt gene, E. coli kanamycin selection, DiMSum; sequences stand for … in CUCUCU…GGAGGGAAAAGUUAUCAGGCAUGCACCUGGUAGCUAGUCUUUAAACCAAUAGAUUGCAUCGGUUUAAAAGGCAAGACCGUCAAAUUGCGGGAAAGGGGUCAACAGCCGUUCAGUACCAAGUCUCAGGGGAAACUUUGAGAUGGCCUUGCAAAGGGUAUGGUAAUAAGCUGACGGACAUGGUCCUAACCACGCAGCCAAGUCCUAAGUCAACAGAUCUUCUGUUGAUAUGGAUGCAGUUCACAGACUAAAUGUCGGUCGGGGAAGAUGUAUUCUUCUCAUAAGAUAUAGUCGGACCUCUCCUUAAUGGGAGCUAGCGGAUGAAGUGAUGCAACACUGGAGCCGCUGGGAACUAAUUUGUAUGCGAAAGUAUAUUGAUUAGUUUUGGAGUACUCGUGGUCG
The essentials:
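Colonies from six replicate transformations of E. coli BL21(DE3) were pooled and amplicon-sequenced on an Illumina HiSeq 2500. The library placed an intron with all eight P1ex-region nucleotides randomised inside the knt kanamycin-resistance gene on pET-22b(+), and cells grew overnight at 37°C or 30°C on LB agar with or without 25 μg/mL kanamycin (plus 100 μg/mL carbenicillin, 50 μM IPTG, 0.2% rhamnose). Fitness is the DiMSum error-weighted combination of wild-type-normalised replicate fold changes, kanamycin versus none.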

For CCUCAGCAAUAUUACGCGGG, the “self-splicing fitness (ln)” value runs as follows: (30 °C) -4.06 ± 0.28; (37 °C) -2.34 ± 0.29.
For AACGAGCAAUAUUACGGGCC, in that order: -4.29 ± 0.39 and -3.18 ± 0.47.
CGGAAGCAAUAUUACGCCAA: the “self-splicing fitness (ln)” value runs as follows: (30 °C) -2.25 ± 0.39; (37 °C) -2.08 ± 0.4.
For ACCAAGCAAUAUUACGUAAG the same measures were -2.18 ± 0.063 and -1.37 ± 0.098.
Regarding CAAGAGCAAUAUUACGAUGA, the “self-splicing fitness (ln)” value is, setting by setting: (30 °C) -3.62 ± 0.33; (37 °C) -0.971 ± 0.17.
For GUUCAGCAAUAUUACGGUUC, in that order: -1.66 ± 0.14 and 0.019 ± 0.18.
Regarding CAAUAGCAAUAUUACGAUCC, the “self-splicing fitness (ln)” value (30 °C) is -2.68 ± 0.46.
For GGCGAGCAAUAUUACGAUAG, the “self-splicing fitness (ln)” value is, setting by setting: (30 °C) -1.89 ± 0.18; (37 °C) -2.67 ± 0.38.
For GCAGAGCAAUAUUACGUGUG, in that order: -2.07 ± 0.22 and -2.63 ± 0.25.
For AUCGAGCAAUAUUACGUCAU the same measures were -2.35 ± 0.14 and -1.65 ± 0.15.
For UAUAAGCAAUAUUACGGAUC, in that order: -2.57 ± 0.15 and -1.58 ± 0.18.
Regarding CACCAGCAAUAUUACGGGUA, the “self-splicing fitness (ln)” value was -0.28 ± 0.045 (30 °C) and -0.404 ± 0.055 (37 °C).
For GUACAGCAAUAUUACGCUAU the same measures were -3.82 ± 0.29 and -1.77 ± 0.2.
For GUCUAGCAAUAUUACGGGAG the same measures were -1.87 ± 0.17 and -0.423 ± 0.11.
For AAUUAGCAAUAUUACGCUAA, in that order: -2.5 ± 0.28 and -2.27 ± 0.24.
In the case of GAUGAGCAAUAUUACGGGAA, the “self-splicing fitness (ln)” value reads like this: (30 °C) -3.01 ± 0.23; (37 °C) -3.7 ± 0.42.
For UUCGAGCAAUAUUACGGUUA the same measures were -1.19 ± 0.13 and -1.05 ± 0.1.
For CGGAAGCAAUAUUACGCGUG, in that order: -1.54 ± 0.16 and -0.867 ± 0.17.
For AUAAAGCAAUAUUACGAGAG, in that order: -2.29 ± 0.18 and -1.03 ± 0.15.
As for GUGUAGCAAUAUUACGUGAG, the “self-splicing fitness (ln)” value is -1.23 ± 0.095 (30 °C) and -0.931 ± 0.093 (37 °C).
For CCCCAGCAAUAUUACGCGCG, in that order: -2.69 ± 0.14 and -2.97 ± 0.22.
Turning to UACCAGCAAUAUUACGCACC, the “self-splicing fitness (ln)” value is -1.52 ± 0.26 (30 °C) and -0.172 ± 0.21 (37 °C).
ACGCAGCAAUAUUACGAAAU: the “self-splicing fitness (ln)” value runs as follows: (30 °C) -2.55 ± 0.13; (37 °C) -1.7 ± 0.15.
Take CUCAAGCAAUAUUACGUUUC: the “self-splicing fitness (ln)” value runs as follows: (30 °C) -4.05 ± 0.24; (37 °C) -3.83 ± 0.37.
For GGCUAGCAAUAUUACGGAAC the same measures were -1.09 ± 0.1 and -0.447 ± 0.13.
On to CUAGAGCAAUAUUACGCAAC, for which the “self-splicing fitness (ln)” value (30 °C) is -1.32 ± 0.22.
As for UGCGAGCAAUAUUACGCGCU, the “self-splicing fitness (ln)” value (30 °C) was -3.43 ± 0.36.
Take ACUGAGCAAUAUUACGGUCU: the “self-splicing fitness (ln)” value (30 °C) was -2.46 ± 0.12 and the “self-splicing fitness (ln)” value (37 °C) is -1.57 ± 0.16.
For GUAUAGCAAUAUUACGGAGU the same measures were -3.8 ± 0.3 and -3.49 ± 0.29.
For AUGAAGCAAUAUUACGGUUG, in that order: -0.993 ± 0.11 and -1.49 ± 0.12.
For CGGUAGCAAUAUUACGCACA, in that order: -0.755 ± 0.26 and -0.0778 ± 0.19.
Regarding CGAUAGCAAUAUUACGAUUA, the “self-splicing fitness (ln)” value by setting is: (30 °C) -1.59 ± 0.13; (37 °C) -0.77 ± 0.15.
For CAUCAGCAAUAUUACGAGCA, in that order: -2.05 ± 0.23 and -0.921 ± 0.14.
Regarding ACAUAGCAAUAUUACGGAUG, the “self-splicing fitness (ln)” value (30 °C) was -1.77 ± 0.12 and the “self-splicing fitness (ln)” value (37 °C) is -1.6 ± 0.14.
For GUAAAGCAAUAUUACGAGGC, in that order: -2.91 ± 0.18 and -2.44 ± 0.24.
Consider AUAGAGCAAUAUUACGGUGG, for which, for the setting “30 °C”, the “self-splicing fitness (ln)” value is -1.24 ± 0.26.
UAUAAGCAAUAUUACGACAU: the “self-splicing fitness (ln)” value was -1.09 ± 0.014 (30 °C) and -0.413 ± 0.033 (37 °C).
For ACCUAGCAAUAUUACGAAUC, in that order: -2.94 ± 0.15 and -1.07 ± 0.13.
Turning to UGCCAGCAAUAUUACGCCGA, the “self-splicing fitness (ln)” value (30 °C) was -2.56 ± 0.37 and the “self-splicing fitness (ln)” value (37 °C) is -1.07 ± 0.18.
For CAAGAGCAAUAUUACGGGCG the same measures were -0.815 ± 0.1 and -0.188 ± 0.12.
As for GUAUAGCAAUAUUACGAUGG, the “self-splicing fitness (ln)” value was -3.43 ± 0.35 (30 °C) and -0.958 ± 0.24 (37 °C).
For CUUGAGCAAUAUUACGGUAG the same measures were -2.88 ± 0.11 and -0.826 ± 0.094.
For CUGAAGCAAUAUUACGUGCC, the “self-splicing fitness (ln)” value (37 °C) is -1.64 ± 0.49.
As to ACAAAGCAAUAUUACGGCAC, the “self-splicing fitness (ln)” value runs as follows: (30 °C) -1.61 ± 0.079; (37 °C) -0.954 ± 0.12.
For CUCUAGCAAUAUUACGUACG the same measures were -2.5 ± 0.23 and -1.4 ± 0.17.
On to AGAGAGCAAUAUUACGACUG, for which, for the setting “30 °C”, the “self-splicing fitness (ln)” value was -2.3 ± 0.2.
As for GUGCAGCAAUAUUACGGGCU, the “self-splicing fitness (ln)” value (30 °C) is -1.95 ± 0.15 and the “self-splicing fitness (ln)” value (37 °C) is -1.2 ± 0.12.
For AAUUAGCAAUAUUACGACGC, in that order: -1.08 ± 0.14 and -0.792 ± 0.13.
For UACUAGCAAUAUUACGCAGA the same measures were -3.67 ± 0.47 and -2.27 ± 0.22.
For UAUGAGCAAUAUUACGCCGG, in that order: -1.7 ± 0.11 and -0.905 ± 0.19.
Consider UAAGAGCAAUAUUACGGCAG, for which the “self-splicing fitness (ln)” value by setting is: (30 °C) -3.03 ± 0.18; (37 °C) -1.38 ± 0.17.
Take ACGGAGCAAUAUUACGGACU: the “self-splicing fitness (ln)” value (30 °C) is -2.21 ± 0.15 and the “self-splicing fitness (ln)” value (37 °C) was -1.84 ± 0.16.
For ACGAAGCAAUAUUACGCCCU, in that order: -0.468 ± 0.1 and 0.19 ± 0.12.
For AUAAAGCAAUAUUACGAAUA, in that order: -0.578 ± 0.14 and -0.302 ± 0.26.
For AUCAAGCAAUAUUACGCAAC, in that order: -2.61 ± 0.14 and -2.37 ± 0.22.
Take UGACAGCAAUAUUACGACGA: the “self-splicing fitness (ln)” value runs as follows: (30 °C) -0.0144 ± 0.099; (37 °C) 0.355 ± 0.13.
As for CAGAAGCAAUAUUACGAAAC, the “self-splicing fitness (ln)” value by setting is: (30 °C) -4.4 ± 0.46; (37 °C) -2.18 ± 0.32.
Consider UAUCAGCAAUAUUACGCGCG, for which the “self-splicing fitness (ln)” value runs as follows: (30 °C) 0.181 ± 0.08; (37 °C) -0.0803 ± 0.1.
For the sequence CCGGAGCAAUAUUACGUUGA, the “self-splicing fitness (ln)” value (37 °C) was -2.61 ± 0.36.
On to UGGCAGCAAUAUUACGGACC, for which the “self-splicing fitness (ln)” value is -2.02 ± 0.33 (30 °C) and -0.716 ± 0.24 (37 °C).
For UGAAAGCAAUAUUACGCUAG, in that order: -1.59 ± 0.15 and 0.503 ± 0.15.
For AUGGAGCAAUAUUACGAGCU, in that order: -3.12 ± 0.27 and -2.17 ± 0.37.
For AGGUAGCAAUAUUACGAGAG, in that order: -3.887 ± 0.03 and -2.71 ± 0.039.
In the case of UCCCAGCAAUAUUACGUAAC, the “self-splicing fitness (ln)” value is -2.45 ± 0.11 (30 °C) and -1.61 ± 0.17 (37 °C).
In the case of UAAAAGCAAUAUUACGGGCC, the “self-splicing fitness (ln)” value reads like this: (30 °C) -1.68 ± 0.2; (37 °C) -2.04 ± 0.38.
Regarding AUAAAGCAAUAUUACGAUCU, the “self-splicing fitness (ln)” value runs as follows: (30 °C) 0.387 ± 0.11; (37 °C) 0.308 ± 0.097.
For UUAAAGCAAUAUUACGUAAA the same measures were -1.16 ± 0.12 and -0.0909 ± 0.12.
Take GAUAAGCAAUAUUACGAAAG: the “self-splicing fitness (ln)” value is, setting by setting: (30 °C) -2.76 ± 0.18; (37 °C) -1.66 ± 0.21.
CAAAAGCAAUAUUACGCCCA: the “self-splicing fitness (ln)” value by setting is: (30 °C) -1.69 ± 0.21; (37 °C) -0.538 ± 0.2.
On to GAUGAGCAAUAUUACGGCAG, for which the “self-splicing fitness (ln)” value (37 °C) is -2.52 ± 0.41.
For the sequence AGAGAGCAAUAUUACGGCAU, the “self-splicing fitness (ln)” value was -2.39 ± 0.18 (30 °C) and -1.36 ± 0.18 (37 °C).
For GCUAAGCAAUAUUACGCGAU, the “self-splicing fitness (ln)” value is -2.05 ± 0.45 (30 °C) and -0.565 ± 0.25 (37 °C).
For UUCCAGCAAUAUUACGAAGA, in that order: -0.997 ± 0.11 and -0.671 ± 0.1.
For CGGCAGCAAUAUUACGGCUA, in that order: -0.121 ± 0.07 and 0.407 ± 0.096.
For CACCAGCAAUAUUACGGCCU the same measures were -2.6 ± 0.16 and -1.93 ± 0.16.
As to GCAAAGCAAUAUUACGGGUU, the “self-splicing fitness (ln)” value is, setting by setting: (30 °C) -2.11 ± 0.12; (37 °C) -1.67 ± 0.16.
For CCGCAGCAAUAUUACGUCGU, in that order: -4.02 ± 0.17 and -2.79 ± 0.15.
UUUGAGCAAUAUUACGGAAG: the “self-splicing fitness (ln)” value (37 °C) was -1.41 ± 0.43.
